In test [1] the target is T1, human GITR expressed on cells (human, UniProt Q9Y5U5 26-241).
T1 sequence (looked up): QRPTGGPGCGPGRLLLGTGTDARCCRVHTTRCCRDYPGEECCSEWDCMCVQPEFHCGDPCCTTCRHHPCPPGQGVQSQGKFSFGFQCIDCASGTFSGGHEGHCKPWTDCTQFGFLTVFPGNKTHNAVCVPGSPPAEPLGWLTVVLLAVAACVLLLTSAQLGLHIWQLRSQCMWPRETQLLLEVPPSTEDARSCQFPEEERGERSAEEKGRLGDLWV
The experiment in a line: cell-based or functional assay.

Test [2] deals with T1, human GITR expressed on cells. The experiment in a line: Meso Scale assay, Sulfo-conjugated antibody on coated HEK293-Trex-hGITR cells. On the procedure: The binding kinetics of anti-GITR antibodies to hGITR expressed on the surface of HEK293 cells were determined by Meso Scale assay. HEK293-Trex-hGITR cells (#2404) were coated at 25000 cells/well on a 96-well High Bind plate (MSD L15XB-3) for 2 hours at room temperature. Wells were washed 2 times with 150 μl/well of PBS and blocked with 150 μl/well of blocking solution for 30 min at room temperature. Following two washes with 150 μl/well of PBS, 25 μL/well of Sulfo-conjugated antibodies were added in 2-fold serial dilutions starting at 100 μg/ml up to 12 dilutions in assay diluent and incubated for 45 min at room temperature followed by two washes with PBS. The antibody binding was evaluated by adding 150 μl/well 1× Read buffer T without surfactant and read using the Mesoscale instrument.

Test [3] has the same target. The experiment in a line: FACS, Alexa488-labeled antibody on PHA-stimulated human PBMCs. On the procedure:
(§1) Specifically, human or cynomolgus monkey peripheral blood mononuclear cells were isloated and diluted to 2×10^6/ml in RPMI-1640 medium containing 10% FBS. The cells were then stimulated with 5 ug/ml phytohaemagglutinin (PHA) for 72 hours in 6 well plates. […] The cells were then washed 2 times with FACS stain buffer (Becton Dickinson) and then co-stained with 50 ul of CD4-APC for 20 minutes in the dark at 4° C. The cells were then washed again 2 times with FACS stain buffer before being resuspended in 150 μL of FACS stain buffer (Becton Dickinson) and analyzed using a FACS Calibur instrument. from which binding curves were generated. Equilibrium dissociation constants (KD) for each antibody were determined from the binding curves.
(In general: A flow cytometer gives signals particle by particle.)

In test [4] the target is T2, cynomolgus monkey GITR on PBMCs (cynomolgus monkey).
T2 construct: whole, on cells; also called cynoGITR-expressing PBMCs
The experiment in a line: FACS, Alexa488-labeled antibody on PHA-stimulated cynomolgus monkey PBMCs. On the procedure: as §1

The target of test [5] is T3, cynomolgus monkey GITR-Fc (cynomolgus monkey).
T3 construct: extracellular domain; also called cGITR-FC; cGITR
The experiment in a line: SPR; KD on cGITR-Fc over KD on hGITR-Fc. The method, then:
(§2) The binding kinetics of several anti-GITR antibodies to recombinant human GITR (hGITR) and cynomolgus monkey GITR (cGITR) were determined by surface plasmon resonance assay using a BIAcore 2000 (BIAcore Inc., […].). Briefly, a CM5 BIAcore biosensor chip was docked into the instrument and activated with 250 μL of 1:1 NHS/EDC at room temperature. A rabbit anti-mouse Fc IgG1 mAb (BIAcore #BR-1005-14) (13.5 μg/mL in 0.05M acetate buffer, pH 5) was immobilized on the activated chips in Flow cell 1. The immobilization was carried out at a flow rate of 5 μL/min. The chip was then blocked by injection of 55 μL of ethanolamine-HCl, pH 8.5, followed by five washes with 50 mM NaOH, 1M NaCl. To measure the binding of anti-GITR mabs to the human GITR protein or cyno GITR protein, antibodies were used at 2 μg/mL in BIAcore running buffer (HBS-EP). Antigens (human GITR or cyno GITR) were injected from 3 to 1000 nM. Following completion of the injection phase, dissociation was monitored in a BIAcore running buffer at the same flow rate for 360 sec. The surface was regenerated between injections using 30 μL of 50 mM NaOH-1 M NaCl. Individual sensorgrams were analyzed using […].
A general note: SPR reads the build-up and loss of mass on a sensor chip optically.

Test [6] concerns the target T3, cynomolgus monkey GITR-Fc. The experiment in a line: SPR (BIAcore 2000), mAb captured on anti-mouse Fc, antigen injected. On the procedure: as §2
Test [7] deals with T4, human GITR-Fc fusion protein (human, UniProt Q9Y5U5 26-162).
T4 construct: extracellular domain; also called hGITR-Fc; recombinant human GITR-Fc; not shown: Fc part
T4 sequence (looked up): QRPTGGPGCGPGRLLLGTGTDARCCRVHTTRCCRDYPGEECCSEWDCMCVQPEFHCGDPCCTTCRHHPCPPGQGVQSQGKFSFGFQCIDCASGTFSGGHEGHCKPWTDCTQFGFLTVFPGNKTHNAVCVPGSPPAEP
The description is as above. On the procedure:
as §2

Test [8] concerns the target T4, human GITR-Fc fusion protein. The experiment in a line: competition ELISA, GITRL coated, GITR-Fc 0.25 µg/mL pre-incubated with antibody. The method, then:
The ability of anti-GITR antibodies to inhibit the binding of human GITRL to hGITR was assessed using a competition ELISA. Ninety-six well plates were coated with GITR-Ligand protein at 0.5 μg/well at 4° C., overnight. Wells were washed with washing buffer (PBS pH 7.4+0.05 Tween 20) and blocked with 200 μL of blocking buffer (PBS pH 7.4+0.05% Tween 20+1% BSA) for 1 hour at room temperature. Wells were then washed two times with washing buffer and exposed to 100 μL of pre-incubated mixtures of GITR-Fc at 0.25 μg/mL plus anti-GITR antibody in 2-fold serial dilutions starting at 10 μg/ml up to 12 dilutions for 1 hour at room temperature with agitation. Plates were washed four times with washing buffer and GITR-Ligand-bound recombinant human GITR-Fc was detected with the use of peroxidase-conjugated goat anti-human IgG-Fc (Sigma), followed by incubation with the TMB substrate (Interchim)
All antibodies generated using the methods disclosed herein were able to antagonize the binding of GITRL to GITR more potently than the prior art MAB689 antibody.
For orientation: ELISA stands for enzyme-linked immunosorbent assay.

Positions count from the first letter of the chain named.

B1: anti-GITR antibody clone 2155 (murine) (antibody, V domains shown)
VH: EVKLVESGGGLVKPGGSLKLSCGASGFTISSYAMSWVRQSPEKRLEWVAIISTGGSTYYPDSVRGRFTISRDNARNSLYLQMSSLRSEDTAMYYCARVGGYYDSMDHWGQGTSVTVSS
VL: not shown
notes: Murine hybridoma antibody
With B1, in test [1], the “IC50 of dose-dependent inhibition of NFkB signal transduction (luciferase reporter)” value came to 0.15 nM. For the same molecule, the Kd in test [2] was 0.35 nM; in test [3], 0.476 nM; in test [4], 0.353 nM; in test [6], 2.27 nM; in test [7] it was 0.99 nM. Further, the “Ratio cKD/hKD” value in test [5] turned out to be 2.3. The koff in test [6] turned out to be 0.00123 s⁻¹; in test [7] it was 0.000508 s⁻¹. In test [8], this molecule came in with an IC50 of 0.96 nM.

B2: anti-GITR antibody clone 1718 (antibody, V domains shown)
VH: QVQVQQSGPELVKPGASVRISCKASDYTFTNYYIHWVRQRPGQGLEWLGWIYPGKGYTNYNEKFKGKATLTADKSSSTAYMQFSSLTSEDSAVYFCASGYGNYYFPYWGQGTLVTVSA
VL: IQMTQSSSYLSVSLGGRVTITCKASDHIKNWLAWYQQKPGNVPRLLMSAATSLETGFPSRFSGSGSGKDFTLTITSLQTEDVATYYCQQYWSTPWTFGGGTKLEIK
notes: Murine hybridoma antibody; also called 1718-GITR2; 1718 GITR-2
Regarding B2, the Kd in test [2] came to 0.857 nM; in test [3], 4.13 nM; in test [6], 3.35 nM; in test [7], 2.57 nM. The “Ratio cKD/hKD” value in test [5] was 1.3. For the same molecule, the results for the koff in test [6] and in test [7] were 0.000345 s⁻¹ and 0.00038 s⁻¹, respectively. This molecule also returned an IC50 in test [8] of 1.02 nM.

B3: anti-GITR antibody clone 706 (antibody, V domains shown)
VH: EVQLQQSGTVLARPGASVKMSCEASGYSFTTYWMHWIKQRPGQGLEWIGAIYPGNSDTGYNQKFKGKAKLTAVTSASTAYMELSSLTNEDSAVYYCTRTSTYPHFDYWGQGTTLTVSS
VL: DILLTQSPAILSVSPGERVSFSCRASQSIGTSIHWYQQRTNGSPRLLIKYASESISGIPSRFSGSGSGTDFTLNINSVESEDIADYYCQQTNNWPLTFGAGTKLELK
notes: Murine hybridoma antibody; also called 706-GITR2; 706 GITR-2
Consider B3, for which the values for the Kd in test [2], in test [6] and in test [7] were 7.24 nM, 31.8 nM and 5.95 nM, respectively. For the same molecule, the “Ratio cKD/hKD” value in test [5] was 5.3. In addition, the koff in test [6] was 0.000662 s⁻¹; in test [7] it was 0.000221 s⁻¹. Besides, the IC50 in test [8] came to 2.82 nM.

B4: anti-GITR antibody clone 827 (antibody, V domains shown)
VH: B3 VH with A24T, M34I, G49A, A50T, T58A, K65R, T99S
VL: B3 VL with G42D
notes: Murine hybridoma antibody; also called 827-GITR2; 827 GITR-2
As for B4, the Kd is 4.44 nM in test [2], 20.9 nM in test [6] and 4.43 nM in test [7]. For the same molecule, the “Ratio cKD/hKD” value in test [5] was 4.7. Also, the koff was determined as 0.000473 s⁻¹ in test [6] and 0.000177 s⁻¹ in test [7]. For the same molecule, the IC50 in test [8] came out at 2.5 nM.

B5: anti-GITR antibody clone 1649 (antibody, V domains shown)
VH: B3 VH with R13G, A16T, M34I, T58A, T99S
VL: B3 VL with G42D
notes: Murine hybridoma antibody; also called 1649-GITR2; 1649 GITR-2
Regarding B5, the Kd in test [2] is 5.38 nM; in test [6], 9.68 nM; in test [7] it was 1.84 nM. The “Ratio cKD/hKD” value in test [5] stood at 5.3. The results for the koff in test [6] and in test [7] were 0.00021 s⁻¹ and 7.44e-05 s⁻¹, respectively. The molecule further returned an IC50 in test [8] of 3.76 nM.

B6: anti-GITR antibody clone 698 (antibody, V domains shown)
VH: B3 VH with S77T, N88D
VL: B3 VL with T91S
notes: Murine hybridoma antibody; also called 698-GITR2; 698 GITR-2
Turning to B6, the Kd in test [2] amounted to 6.8 nM; in test [6], 36.8 nM; in test [7], 6.67 nM. The “Ratio cKD/hKD” value in test [5] was 5.5. Also, the results for the koff in test [6] and in test [7] were 0.000707 s⁻¹ and 0.000224 s⁻¹, respectively. For the same molecule, in test [8], the IC50 came to 1.9 nM.

Usually Kd stands for the equilibrium constant for the complex coming apart. As usually defined, the koff is a measure of how fast the partners let go of each other. One may read the IC50 as the midpoint of a concentration-inhibition curve.

For the origin of these results see US20130108641A1 (Sanofi, published 2013).
